Reference: US20090130710A1, “Enhancing vegetative protein production in transgenic plants using seed specific promoters” (priority 2005, published 2009)

Assays:
[1] = test system: transgenic tobacco leaves co-expressing ABI3 and α-L-iduronidase; test: IDUA activity in leaves of tobacco co-transformants incubated on culture media with ABA or stress chemicals; assay type: cell-based
Protocol: FIG. 6. Use of ABA to enhance human α-L-iduronidase activity in plants co-expressing ABI3 and α-L-iduronidase.
FIG. 10. The effects of different treatments designed to enhance endogenous ABA levels on human α-L-iduronidase activities. Leaves of selected tobacco co-transformants (plants co-expressing constructs a and c [Arc-IDUA/ABI3] and plants co-expressing constructs a and d [Arc-IDUA-KDEL/ABI3]) were incubated for 6 days in media containing the following chemicals: (1) polyethylene glycol, PEG; (2) mM NaCl; (3) mM sucrose; (4) mM mannitol, or the leaves were kept on medium at 4 degrees celsius.
(§1) Stably transformed plants were cultured in magenta boxes at 25° C. and sub-cultured every 3 months. Healthy, fully expanded leaves from 4-week plants were used in the present study.

[2] = test system: tobacco leaves co-expressing Arc-IDUA/ABI3 or Arc-IDUA-KDEL/ABI3; test: Northern blot analysis of α-L-iduronidase mRNA in tobacco co-transformant leaves; assay type: cell-based; conditions: 100 μM S(+)-ABA, 6 days, compared to leaves in culture without ABA
Text: FIG. 8. ABA acts at the transcriptional level to enhance the levels of human α-L-iduronidase.

[3] = test system: transgenic tobacco leaves co-expressing construct (a) (the CnABI3 gene) and construct (b) (encoding GUS); test: GUS activity in transgenic tobacco leaves co-expressing CnABI3 and Vic-GUS; assay type: cell-based; conditions: increasing concentration of natural ABA up to 200 μM
Protocol: FIG. 4. Effect of natural S-(+)-ABA on recombinant bacterial β-glucuronidase (GUS) activities in transgenic tobacco leaves co-expressing construct (a) (the CnABI3 gene) and construct (b) (encoding GUS). […] There is a greater enhancement of GUS activities, with an increasing concentration of natural ABA up to 200 μM.
Transgenic tobacco plants were also generated by co-expressing the CnABI3 gene (construct a) and a gene construct containing the bacterial GUS gene coding region linked to a seed storage protein gene promoter—the vicilin gene promoter (construct b of FIG. 3) (Jiang et al., 1995).
as §1

[4] = test system: tobacco leaves co-expressing Arc-IDUA/ABI3 or Arc-IDUA-KDEL/ABI3; test: Western blot of α-L-iduronidase protein in tobacco co-transformant leaves; assay type: cell-based; conditions: day 6 of incubation; Arc-IDUA/ABI3 and Arc-IDUA-KDEL/ABI3 leaves
Protocol: FIG. 9. Western blot showing the effects of ABA at different concentrations of the levels of human α-L-iduronidase protein at day 6 of incubation. As with the activity data (FIG. 7), leaves of selected tobacco co-transformants (plants co-expressing constructs a and c [Arc-IDUA/ABI3] and plants co-expressing constructs a and d [Arc-IDUA-KDEL/ABI3]) incubated for 6 days in increasing concentrations of S(+)-ABA, show the maximum α-L-iduronidase protein accumulation levels at 150 μM S(+)-ABA.

[5] = target: T1, α-L-iduronidase (IDUA) activity (Homo sapiens, UniProt P35475); test: IDUA specific activity after purification from transgenic Arabidopsis seeds (4MU formation); assay type: biochemical; conditions: for Units/mg (specific activity): units are nmoles 4MU formed per minute
T1 construct: arcelin-5-I (ARC5-I) signal peptide of Phaseolus vulgaris (N); made in house; host or cells: transgenic Arabidopsis thaliana T3 seeds (wild type and cgl mutant)
T1 sequence (P35475 28-653): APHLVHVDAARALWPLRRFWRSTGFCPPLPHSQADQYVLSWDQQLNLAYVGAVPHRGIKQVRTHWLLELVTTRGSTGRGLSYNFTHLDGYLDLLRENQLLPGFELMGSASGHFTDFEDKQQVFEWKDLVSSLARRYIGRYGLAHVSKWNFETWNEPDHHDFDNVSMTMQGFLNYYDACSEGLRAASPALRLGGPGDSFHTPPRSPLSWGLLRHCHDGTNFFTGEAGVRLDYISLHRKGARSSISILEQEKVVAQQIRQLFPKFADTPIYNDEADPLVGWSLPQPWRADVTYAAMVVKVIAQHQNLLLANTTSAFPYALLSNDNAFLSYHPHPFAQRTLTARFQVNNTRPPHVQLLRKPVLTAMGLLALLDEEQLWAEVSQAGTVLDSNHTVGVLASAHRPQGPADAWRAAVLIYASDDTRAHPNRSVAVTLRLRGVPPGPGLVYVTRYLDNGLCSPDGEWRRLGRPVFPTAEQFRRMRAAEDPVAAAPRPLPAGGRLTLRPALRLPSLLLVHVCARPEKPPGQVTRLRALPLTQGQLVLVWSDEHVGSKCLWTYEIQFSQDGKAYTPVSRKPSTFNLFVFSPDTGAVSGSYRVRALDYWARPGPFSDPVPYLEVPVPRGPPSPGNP
Text: Table 1. Specific activities of Arabidopsis-derived α-L-iduronidase following purification of the recombinant enzyme from T3 seeds using a modified three-column procedure developed for extraction from human liver (Clements et al., 1989).

[6] = step Ab: combined elution fractions from antibody column
[7] = step BGel: combined elution fractions from Bio-Gel P100 column
[8] = step ConA: combined elution fractions from concanavalin A/Sepharose column
[9] = step Crude: clarified lysate (lipid removed)

Row | Molecule | Units/mg (specific activity) [5, 6] | Units/mg (specific activity) [5, 7] | Units/mg (specific activity) [5, 8] [Units/mg] | Units/mg (specific activity) [5, 9] [Units/mg] | further results
1 | CC1=CC(=O)CC(C)(C)[C@@]1(O)/C=C/C(C)=C\C(=O)O [ABA, S-(+)-ABA] | – | – | – | – | ABA concentration at which α-L-iduronidase activities reach a maximum ([1]; 6 days incubation in increasing concentrations, Arc-IDUA/ABI3 and Arc-IDUA-KDEL/ABI3 leaves): 150 µM; IDUA activities in leaves ([1]; ABA-treated leaves co-expressing ABI3 and IDUA-KDEL, 7 days of incubation): ≤ 16,000 pmol min^−1 mg^−1; enhancement of α-L-iduronidase activity versus transgenic control leaves (no ABA) ([1]; S(+)-ABA at 80 μM, day 7 of incubation, leaves co-expressing constructs a and d (Arc-IDUA-KDEL/ABI3)): ~58 fold; effect on steady-state mRNA levels encoding α-L-iduronidase [2]: enhanced steady-state mRNA levels; effect on recombinant GUS activities [3]: enhanced GUS activities; ABA concentration showing maximum α-L-iduronidase protein accumulation levels [4]: 150 µM
2 | [Cl-].[Na+] [NaCl] | – | – | – | – | effect on α-L-iduronidase activities of treatments designed to enhance endogenous ABA levels ([1]; 6 days incubation, compared to ABA control (150 μM S(+)-ABA), NaCl 240 mM or 300 mM): dramatic effectiveness in enhancing α-L-iduronidase activities
3 | IDUA derived from transgenic WT seeds: recombinant human α-L-iduronidase purified from transgenic Arabidopsis wild-type T3 seeds (protein, UniProt P35475 28-653, looked up, made in Arabidopsis seeds) Alpha-L-iduronidase: APHLVHVDAARALWPLRRFWRSTGFCPPLPHSQADQYVLSWDQQLNLAYVGAVPHRGIKQVRTHWLLELVTTRGSTGRGLSYNFTHLDGYLDLLRENQLLPGFELMGSASGHFTDFEDKQQVFEWKDLVSSLARRYIGRYGLAHVSKWNFETWNEPDHHDFDNVSMTMQGFLNYYDACSEGLRAASPALRLGGPGDSFHTPPRSPLSWGLLRHCHDGTNFFTGEAGVRLDYISLHRKGARSSISILEQEKVVAQQIRQLFPKFADTPIYNDEADPLVGWSLPQPWRADVTYAAMVVKVIAQHQNLLLANTTSAFPYALLSNDNAFLSYHPHPFAQRTLTARFQVNNTRPPHVQLLRKPVLTAMGLLALLDEEQLWAEVSQAGTVLDSNHTVGVLASAHRPQGPADAWRAAVLIYASDDTRAHPNRSVAVTLRLRGVPPGPGLVYVTRYLDNGLCSPDGEWRRLGRPVFPTAEQFRRMRAAEDPVAAAPRPLPAGGRLTLRPALRLPSLLLVHVCARPEKPPGQVTRLRALPLTQGQLVLVWSDEHVGSKCLWTYEIQFSQDGKAYTPVSRKPSTFNLFVFSPDTGAVSGSYRVRALDYWARPGPFSDPVPYLEVPVPRGPPSPGNP | 9,033 Units/mg | 14,700 Units/mg | 29 | 6.3 | specific activity of the enzyme ([5]; following chromatography on Bio-Gel P-100, purified from T3 seeds): 14,700 nmol 4 MU/min/mg TSP
4 | IDUA derived from transgenic cg/mutant seeds: recombinant human α-L-iduronidase purified from transgenic Arabidopsis cgl mutant seeds (N-acetylglucosaminyl transferase I deficient) (protein, UniProt P35475 28-653, looked up, made in Arabidopsis cgl mutant seeds) Alpha-L-iduronidase: APHLVHVDAARALWPLRRFWRSTGFCPPLPHSQADQYVLSWDQQLNLAYVGAVPHRGIKQVRTHWLLELVTTRGSTGRGLSYNFTHLDGYLDLLRENQLLPGFELMGSASGHFTDFEDKQQVFEWKDLVSSLARRYIGRYGLAHVSKWNFETWNEPDHHDFDNVSMTMQGFLNYYDACSEGLRAASPALRLGGPGDSFHTPPRSPLSWGLLRHCHDGTNFFTGEAGVRLDYISLHRKGARSSISILEQEKVVAQQIRQLFPKFADTPIYNDEADPLVGWSLPQPWRADVTYAAMVVKVIAQHQNLLLANTTSAFPYALLSNDNAFLSYHPHPFAQRTLTARFQVNNTRPPHVQLLRKPVLTAMGLLALLDEEQLWAEVSQAGTVLDSNHTVGVLASAHRPQGPADAWRAAVLIYASDDTRAHPNRSVAVTLRLRGVPPGPGLVYVTRYLDNGLCSPDGEWRRLGRPVFPTAEQFRRMRAAEDPVAAAPRPLPAGGRLTLRPALRLPSLLLVHVCARPEKPPGQVTRLRALPLTQGQLVLVWSDEHVGSKCLWTYEIQFSQDGKAYTPVSRKPSTFNLFVFSPDTGAVSGSYRVRALDYWARPGPFSDPVPYLEVPVPRGPPSPGNP | 2,700 Units/mg | 7,800 Units/mg | 8 | 2.04 | –
